# Measurements as given in paper PMC2822398.
# B1: nicked vTopIB-binding duplex (three oligonucleotides) (dsDNA)
# DNA 1: GTGTCGCCCTT
# DNA 2: ATTCC
# DNA 3: CGGAATAAGGGCGACA
# modifications: nick at the scissile phosphate (phosphodiester missing), filled by vanadate in the crystal
# Biological target: variola virus topoisomerase IB (vTopIB) (variola virus (smallpox), UniProt P32989 1-314)
# Assay: X-ray crystallography
# Chain of variola virus topoisomerase IB (vTopIB) (P32989 whole entry): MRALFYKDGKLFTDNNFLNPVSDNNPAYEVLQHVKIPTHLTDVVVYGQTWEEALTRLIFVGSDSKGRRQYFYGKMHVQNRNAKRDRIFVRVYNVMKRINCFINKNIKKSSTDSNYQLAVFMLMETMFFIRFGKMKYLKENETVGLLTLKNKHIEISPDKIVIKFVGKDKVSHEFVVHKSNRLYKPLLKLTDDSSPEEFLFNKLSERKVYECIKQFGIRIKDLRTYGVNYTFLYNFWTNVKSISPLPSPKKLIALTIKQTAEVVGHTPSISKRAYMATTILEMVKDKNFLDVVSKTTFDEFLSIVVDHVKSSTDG
binder,measurement,value
B1,binding result,binds
